We go through one sequence from US20210284695A1, “FOLDED AND PROTEASE-RESISTANT POLYPEPTIDES” (UNIVERSITY OF WASHINGTON, priority 2017, published 2021).

This data set is classed as physicochemical. The procedure:
FIG. 2. Biophysical characterization of designed minimal proteins. (A) Design models and NMR solution ensembles for designed minimal proteins. (B) Far-ultraviolet circular dichroism (CD) spectra at 25° C. (black), 95° C. (red), and 25° C. following melting (blue). (C) Thermal melting curves measured by CD at 220 nm. Melting temperatures determined using the derivative of the curve. (D) Chemical denaturation in GuHCl measured by CD at 220 nm and 25° C. Unfolding free energies determined by fitting to a two-state model (red solid line).
Far-ultraviolet CD measurements were carried out with an AVIV spectrometer, model 420. Wavelength scans were measured from 260 to 195 nm at 25 and 95° C. Temperature melts monitored dichroism signal at 220 nm in steps of 2° C./minute with 30 s of equilibration time. […] The GuHCl concentration was determined by refractive index in PBS buffer. The denaturation process monitored dichroism signal at 220 nm in steps of 0.2 M GdmCl with 1 minute mixing time for each step, at 25° C. Protein concentrations were determined by absorbance at 280 nm measured using a NanoDrop™ spectrophotometer (Thermo Scientific) using predicted extinction coefficients (65). Protein concentrations for designs lacking aromatic amino acids were measured by Qubit™ protein assay (ThermoFisher Scientific). […]

Take “TTVKGDIKVTFDNPEKAKKYAQKLAKIYQLTVHVHGDTIHVK [EEHEE_rd3_1049]”: the “stability of purified design (CD, in words)” value is reported as “very stable”.
